Source: paper PMC3526290

System: H3/H4 (FM label on H4 C71) (Xenopus laevis)
Assay: EMSA
Conditions: 0.2 uM H3/H4, 0.4 uM DNA, no chaperone, disome and tetrasome, EMSA deposition: 10 mM Tris, 150 mM NaCl, 0.5 mM TCEP, pH 8.0, on ice, 0.2x TBE native gel, FRET: 10 mM Tris pH 7.5, 150 mM KCl, 2 mM MgCl, 1% glycerol

Substance 80 bp 601 DNA has a binding signal of 44 % tetrasomes.
